In patent publication US20140348819A1, “Methods of Treating Cancer” (Dana-Farber Cancer Institute, Inc., priority 2011, published 2014):

Tested on: six V600E BRAF melanoma cell lines
Test: Screening of recombinant RTK ligands for ability to confer resistance to BRAFi (PLX4720) or MEKi (PD184352) (Table 4)
Format: cell-based, human
Design: ability of recombinant RTK ligand to confer resistance / ability of recombinant RTK ligand to confer resistance (screening value): scale not given here
Outline: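 Resistance to BRAFi (PLX4720) or MEKi (PD184352) was tested in six V600E BRAF melanoma lines given one of 22 recombinant RTK ligands. For a subset of RTKs, activation was checked by high-throughput tyrosine kinase phosphorylation profiling and western blot.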

B1: Gas6 (protein, UniProt Q14393 31-678, looked up)
Growth arrest-specific …: ALLPAREATQFLRPRQRRAFQVFEEAKQGHLERECVEELCSREEAREVFENDPETDYFYPRYLDCINKYGSPYTKNSGFATCVQNLPDQCTPNPCDRKGTQACQDLMGNFFCLCKAGWGGRLCDKDVNECSQENGGCLQICHNKPGSFHCSCHSGFELSSDGRTCQDIDECADSEACGEARCKNLPGSYSCLCDEGFAYSSQEKACRDVDECLQGRCEQVCVNSPGSYTCHCDGRGGLKLSQDMDTCEDILPCVPFSVAKSVKSLYLGRMFSGTPVIRLRFKRLQPTRLVAEFDFRTFDPEGILLFAGGHQDSTWIVLALRAGRLELQLRYNGVGRVTSSGPVINHGMWQTISVEELARNLVIKVNRDAVMKIAVAGDLFQPERGLYHLNLTVGGIPFHEKDLVQPINPRLDGCMRSWNWLNGEDTTIQETVKVNTRMQCFSVTERGSFYPGSGFAFYSLDYMRTPLDVGTESTWEVEVVAHIRPAADTGVLFALWAPDLRAVPLSVALVDYHSTKKLKKQLVVLAVEHTALALMEIKVCDGQEHVVTVSLRDGEATLEVDGTRGQSEVSAAQLQERLAVLERHLRSPVLTFAGGLPDVPVTSAPVTAFYRGCMTLEVNRRLLDLDEAAYKHSDITAHSCPPVEPAAA
Question: B1 was tested. Which “ability of recombinant RTK ligand to confer resistance” value (shortened to “ability of recombinant RTK ligand”) (A2058, PD184352 - 1 uM, ligand 6.25 ng/ml) did it give?
Answer: 0.99

Question: And the “ability of recombinant RTK ligand” value (A2058, PD184352 - 1 uM, ligand 25 ng/ml)?
Answer: 0.97

Question: What about the “ability of recombinant RTK ligand” value (A2058, PD184352 - 1 uM, ligand 100 ng/ml) of the same molecule?
Answer: 1.02

Question: What about the “ability of recombinant RTK ligand” value (A2058, PD184352 - 1 uM, ligand 400 ng/ml) of the same molecule?
Answer: 0.97

Question: And the “ability of recombinant RTK ligand” value (A2058, PD184352 - 1 uM, ligand 1600 ng/ml)?
Answer: 0.95

Question: What about the “ability of recombinant RTK ligand” value (A2058, PLX4720 - 2 uM, ligand 6.25 ng/ml) of the same molecule?
Answer: 1.01

Question: What about the “ability of recombinant RTK ligand” value (A2058, PLX4720 - 2 uM, ligand 25 ng/ml) of the same molecule?
Answer: 1.00

Question: And the “ability of recombinant RTK ligand” value (A2058, PLX4720 - 2 uM, ligand 100 ng/ml)?
Answer: 0.98

Question: And the “ability of recombinant RTK ligand” value (A2058, PLX4720 - 2 uM, ligand 400 ng/ml)?
Answer: 0.98

Question: And the “ability of recombinant RTK ligand” value (A2058, PLX4720 - 2 uM, ligand 1600 ng/ml)?
Answer: 0.97

Question: What about the “ability of recombinant RTK ligand” value (C32, PD184352 - 1 uM, ligand 6.25 ng/ml) of the same molecule?
Answer: 1.02

Question: And the “ability of recombinant RTK ligand” value (C32, PD184352 - 1 uM, ligand 25 ng/ml)?
Answer: 1.01

Question: What about the “ability of recombinant RTK ligand” value (C32, PD184352 - 1 uM, ligand 100 ng/ml) of the same molecule?
Answer: 1.01

Question: What about the “ability of recombinant RTK ligand” value (C32, PD184352 - 1 uM, ligand 400 ng/ml) of the same molecule?
Answer: 1.15

Question: And the “ability of recombinant RTK ligand” value (C32, PD184352 - 1 uM, ligand 1600 ng/ml)?
Answer: 0.91

Question: What about the “ability of recombinant RTK ligand” value (C32, PLX4720 - 2 uM, ligand 6.25 ng/ml) of the same molecule?
Answer: 1.05

Question: And the “ability of recombinant RTK ligand” value (C32, PLX4720 - 2 uM, ligand 25 ng/ml)?
Answer: 0.89

Question: What about the “ability of recombinant RTK ligand” value (C32, PLX4720 - 2 uM, ligand 100 ng/ml) of the same molecule?
Answer: 1.00

Question: And the “ability of recombinant RTK ligand” value (C32, PLX4720 - 2 uM, ligand 400 ng/ml)?
Answer: 1.05

Question: And the “ability of recombinant RTK ligand” value (C32, PLX4720 - 2 uM, ligand 1600 ng/ml)?
Answer: 0.95

Question: What about the “ability of recombinant RTK ligand” value (Colo 829, PD184352 - 1 uM, ligand 6.25 ng/ml) of the same molecule?
Answer: 0.98

Question: And the “ability of recombinant RTK ligand” value (Colo 829, PD184352 - 1 uM, ligand 25 ng/ml)?
Answer: 1.01

Question: What about the “ability of recombinant RTK ligand” value (Colo 829, PD184352 - 1 uM, ligand 100 ng/ml) of the same molecule?
Answer: 0.98

Question: What about the “ability of recombinant RTK ligand” value (Colo 829, PD184352 - 1 uM, ligand 400 ng/ml) of the same molecule?
Answer: 0.99

Question: What about the “ability of recombinant RTK ligand” value (Colo 829, PD184352 - 1 uM, ligand 1600 ng/ml) of the same molecule?
Answer: 1.02

Question: What about the “ability of recombinant RTK ligand” value (Colo 829, PLX4720 - 2 uM, ligand 6.25 ng/ml) of the same molecule?
Answer: 0.97

Question: And the “ability of recombinant RTK ligand” value (Colo 829, PLX4720 - 2 uM, ligand 25 ng/ml)?
Answer: 1.02

Question: And the “ability of recombinant RTK ligand” value (Colo 829, PLX4720 - 2 uM, ligand 100 ng/ml)?
Answer: 0.94

Question: What about the “ability of recombinant RTK ligand” value (Colo 829, PLX4720 - 2 uM, ligand 400 ng/ml) of the same molecule?
Answer: 0.99

Question: And the “ability of recombinant RTK ligand” value (Colo 829, PLX4720 - 2 uM, ligand 1600 ng/ml)?
Answer: 1.03

Question: And the “ability of recombinant RTK ligand” value (G-361, PD184352 - 1 uM, ligand 6.25 ng/ml)?
Answer: 1.03

Question: What about the “ability of recombinant RTK ligand” value (G-361, PD184352 - 1 uM, ligand 25 ng/ml) of the same molecule?
Answer: 1.00

Question: And the “ability of recombinant RTK ligand” value (G-361, PD184352 - 1 uM, ligand 100 ng/ml)?
Answer: 0.91

Question: And the “ability of recombinant RTK ligand” value (G-361, PD184352 - 1 uM, ligand 400 ng/ml)?
Answer: 0.94

Question: And the “ability of recombinant RTK ligand” value (G-361, PD184352 - 1 uM, ligand 1600 ng/ml)?
Answer: 0.88

Question: And the “ability of recombinant RTK ligand” value (G-361, PLX4720 - 2 uM, ligand 6.25 ng/ml)?
Answer: 0.97

Question: What about the “ability of recombinant RTK ligand” value (G-361, PLX4720 - 2 uM, ligand 25 ng/ml) of the same molecule?
Answer: 0.95

Question: And the “ability of recombinant RTK ligand” value (G-361, PLX4720 - 2 uM, ligand 100 ng/ml)?
Answer: 0.98

Question: And the “ability of recombinant RTK ligand” value (G-361, PLX4720 - 2 uM, ligand 400 ng/ml)?
Answer: 0.97

Question: What about the “ability of recombinant RTK ligand” value (G-361, PLX4720 - 2 uM, ligand 1600 ng/ml) of the same molecule?
Answer: 0.85

Question: What about the “ability of recombinant RTK ligand” value (SK-MEL-5, PD184352 - 1 uM, ligand 6.25 ng/ml) of the same molecule?
Answer: 0.99

Question: What about the “ability of recombinant RTK ligand” value (SK-MEL-5, PD184352 - 1 uM, ligand 25 ng/ml) of the same molecule?
Answer: 1.01

Question: What about the “ability of recombinant RTK ligand” value (SK-MEL-5, PD184352 - 1 uM, ligand 100 ng/ml) of the same molecule?
Answer: 0.97

Question: And the “ability of recombinant RTK ligand” value (SK-MEL-5, PD184352 - 1 uM, ligand 400 ng/ml)?
Answer: 0.89

Question: And the “ability of recombinant RTK ligand” value (SK-MEL-5, PD184352 - 1 uM, ligand 1600 ng/ml)?
Answer: 0.94

Question: And the “ability of recombinant RTK ligand” value (SK-MEL-5, PLX4720 - 2 uM, ligand 6.25 ng/ml)?
Answer: 0.98

Question: What about the “ability of recombinant RTK ligand” value (SK-MEL-5, PLX4720 - 2 uM, ligand 25 ng/ml) of the same molecule?
Answer: 1.00

Question: And the “ability of recombinant RTK ligand” value (SK-MEL-5, PLX4720 - 2 uM, ligand 100 ng/ml)?
Answer: 1.03

Question: What about the “ability of recombinant RTK ligand” value (SK-MEL-5, PLX4720 - 2 uM, ligand 400 ng/ml) of the same molecule?
Answer: 1.05

Question: What about the “ability of recombinant RTK ligand” value (SK-MEL-5, PLX4720 - 2 uM, ligand 1600 ng/ml) of the same molecule?
Answer: 0.97

Question: What about the “ability of recombinant RTK ligand” value (SK-MEL-28, PD184352 - 1 uM, ligand 6.25 ng/ml) of the same molecule?
Answer: 1.03

Question: What about the “ability of recombinant RTK ligand” value (SK-MEL-28, PD184352 - 1 uM, ligand 25 ng/ml) of the same molecule?
Answer: 0.87

Question: And the “ability of recombinant RTK ligand” value (SK-MEL-28, PD184352 - 1 uM, ligand 100 ng/ml)?
Answer: 1.00

Question: And the “ability of recombinant RTK ligand” value (SK-MEL-28, PD184352 - 1 uM, ligand 400 ng/ml)?
Answer: 1.01

Question: What about the “ability of recombinant RTK ligand” value (SK-MEL-28, PD184352 - 1 uM, ligand 1600 ng/ml) of the same molecule?
Answer: 1.14

Question: What about the “ability of recombinant RTK ligand” value (SK-MEL-28, PLX4720 - 2 uM, ligand 6.25 ng/ml) of the same molecule?
Answer: 1.13

Question: And the “ability of recombinant RTK ligand” value (SK-MEL-28, PLX4720 - 2 uM, ligand 25 ng/ml)?
Answer: 0.96

Question: And the “ability of recombinant RTK ligand” value (SK-MEL-28, PLX4720 - 2 uM, ligand 100 ng/ml)?
Answer: 1.04

Question: What about the “ability of recombinant RTK ligand” value (SK-MEL-28, PLX4720 - 2 uM, ligand 400 ng/ml) of the same molecule?
Answer: 1.08

Question: And the “ability of recombinant RTK ligand” value (SK-MEL-28, PLX4720 - 2 uM, ligand 1600 ng/ml)?
Answer: 1.22
